The results in this text go back to publication PMC6642009.

What is called Kd is the constant that tells how readily two partners part at equilibrium. Higher therefore signals weaker binding.

The target of the assay is FITC-SgbA(leader) (Streptomyces globisporus sp. NRRL B-2293). The experiment in a line: fluorescence polarisation.
The substance “His6-MBP-SgbL(208–318) (domain or fragment)” yielded a Kd of 31000 nM. This counts as double-digit micromolar.

For “His6-SgbL(lyase-kinase 1–548) (domain or fragment)”, the Kd was 251 nM.

Turning to “His6-SgbL(lyase-kinase 1–548) D351A (domain or fragment)”, the Kd was found to be 576 nM.

In turn, “His6-SgbL(lyase-kinase 1–548) D369A (domain or fragment)” returned a Kd of 353 nM.

Substance “His6-SgbL(lyase-kinase 1–548) E270A (domain or fragment)” registered a Kd of 1720 nM.

“His6-SgbL(lyase-kinase 1–548) K248A (domain or fragment)” displayed a Kd of 7110 nM.

“His6-SgbL(lyase-kinase 1–548) N356A (domain or fragment)” returned a Kd of 321 nM.
